Values belong to the molecule of their own block, whether it stands above or below them.
Legend:
[1] = tested on: other recombinant human and murine GPC family proteins (human GPC1, GPC3, GPC4, GPC5, GPC6, mouse GPC2); experiment: ELISA-based specific binding assay, cross-reactivity; conditions: FIG. 3A-3G
Description: (§1) To evaluate the specificity of humanized anti-GPC2 VHH5 to recombinant human GPC2 protein, an ELISA-based binding assay was conducted to determine the differential target proteins binding of anti-GPC2 VHH5. Briefly, microplates were coated with 2 μg/mL recombinant human GPC1-His (RD System, Cat #4519-GP), GPC2-His (RD System, Cat #2304-GP), GPC3-His (ACRO, Cat #GP3-H5223), GPC4-Fc (RD System, Cat #9195-GP), GPC5-His (RD System, Cat #2607-G5/CF), GPC6-His (RD System, Cat #2845-GP) or recombinant mouse GPC2-His (RD System, Cat #2355-GP) proteins. Recombinant human protein coated plates were blocked with skim milk. Serially diluted humanized VHH-hIgG1Fc recombinant antibodies were added to each well of the plates and incubated at 4° C. for 1.5 h. Samples were further labelled with HRP-conjugated goat anti human IgG (H+L) secondary antibody (Genescript, Cat #A00166-1) and signal was developed with 3,3′,5,5′-Tetramethylbenzidine (TMB) substrate according to manufacturer's instruction. For the GPC4, VHH-His recombinant antibodies and anti-His tag secondary antibody (Genescript, Cat #A00612) were added to the GPC4-Fc coated plates instead. Optic density at 450 nm was measured by plate reader.

[2] = biological target: T1, recombinant human GPC2-His protein (Homo sapiens, UniProt Q8N158); experiment: SPR (Biacore T200) affinity of anti-GPC2 VHH-hIgG1Fc; conditions: 1:1 binding model
T1 construct: His
T1 sequence (Q8N158 24-554): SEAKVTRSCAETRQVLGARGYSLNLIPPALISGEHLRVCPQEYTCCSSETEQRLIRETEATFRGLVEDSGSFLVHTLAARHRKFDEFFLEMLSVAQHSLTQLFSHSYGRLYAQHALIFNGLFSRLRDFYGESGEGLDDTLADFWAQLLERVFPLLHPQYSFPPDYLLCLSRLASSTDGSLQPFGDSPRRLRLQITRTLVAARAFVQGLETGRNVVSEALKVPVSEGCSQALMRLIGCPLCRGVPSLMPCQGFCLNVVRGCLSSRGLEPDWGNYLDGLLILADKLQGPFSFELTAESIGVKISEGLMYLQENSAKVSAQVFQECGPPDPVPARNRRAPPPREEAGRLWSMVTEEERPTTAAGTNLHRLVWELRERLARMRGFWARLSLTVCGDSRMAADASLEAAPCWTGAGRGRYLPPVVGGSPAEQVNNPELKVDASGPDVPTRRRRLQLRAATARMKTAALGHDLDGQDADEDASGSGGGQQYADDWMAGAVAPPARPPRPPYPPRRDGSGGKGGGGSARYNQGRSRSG
Description: Each of the exemplary anti-GPC2 VHH sequences was cloned into a vector comprising a human IgG1Fc fragment (hlgG1Fc) sequence to facilitate recombinant expression of anti-GPC2 VHH-hlgG1Fc. Recombinant proteins were obtained and purified for SPR assays. The affinity of each anti-GPC2 VHH-hIgG1Fc for GPC2 was determined by SPR using a BIACORE® T200 analytical system (GE Healthcare). Briefly, recombinant human GPC2-His protein was covalently coupled to a CM5(s) sensor chip using an amine coupling kit. Exemplary VHH-hIgG1Fc proteins were serially diluted in running buffer (10 mM HEPES, 150 mM NaCl, 3 mM EDTA, 0.05% Tween-20, pH 7.4) and injected over the chip cell at a flowrate of 100 μL/min for 100 seconds followed by buffer-only injection for 300 seconds to allow for antibody dissociation. The dissociation […] (KD) were determined using the BIACORE® T200 evaluation software version 3.0 (Langmuir binding, local fit, 1:1 binding model).

[3] = biological target: T2, recombinant human GPC2 protein (Homo sapiens, UniProt Q8N158); experiment: ELISA-based specific binding assay, human GPC2; conditions: FIG. 3A-3G
T2 construct: His; purchased RD System (R&D Systems) 2304-GP
T2 sequence (Q8N158 24-554): T1 sequence (Q8N158 24-554)
Description: as §1

[4] = biological target: T3, human GPC2 expressing cells HEK293T/hGPC2 (Homo sapiens, UniProt Q8N158); experiment: Flow cytometry binding of VHH-His proteins to HEK293T/hGPC2; conditions: FIG. 4A-4C
T3 construct: expressed in transfected cells; host or cells: HEK293T (ATCC, #CRL-1573), plvx-EF1α-puro plasmid
T3 sequence (Q8N158 24-554): T1 sequence (Q8N158 24-554)
Source text: (§2) Recombinant anti-GPC2 VHH-His proteins were constructed by fusing the anti-GPC2 VHH sequence to a mouse Ig heavy chain signal peptide sequence (N′-MGWSWILLFLLSVTAGVHS-C; SEQ ID NO: 179) at the N terminus, and a 6×His-tag (N′-HHHHHH-C; SEQ ID NO: 180) at the C terminus. The codons were further optimized for optimal expression in mammalian engineered immune effector cells. The obtained nucleotide sequences were then cloned into a mammalian expression vector pCDNA3.4 to provide expression plasmids.
(§3) Binding affinities of humanized VHH proteins AS70950VH6, AS71529VH6, AS72669VH6 and AS71529VH6-AS70950VH6 anti-GPC2 VHH-HIS proteins to human GPC2 expressing cells (SH-SY5Y and HEK293T/hGPC2) and cynomolgus monkey GPC2 expressing cell (HEK293T/cynoGPC2) were determined using flow cytometry. Briefly, serially diluted anti-GPC2 VHH-HIS proteins were incubated with 2×10^5 target cells at 4° C. for 30 mins. After washing, cells were further labelled with THE™ His tag Antibody (iFluor 647) (Genescript, #A01802) at 4° C. for 30 mins. Fluorescence intensity was measured by flow cytometry. A four parameters variable slope curve was fitted to each group using GraphPad Prism for Windows Version 6.02.

[5] = biological target: T4, human GPC2 expressing cells SH-SY5Y (Homo sapiens, UniProt Q8N158); experiment: Flow cytometry binding of VHH-His proteins to SH-SY5Y; conditions: FIG. 4A-4C
T4 construct: host or cells: SH-SY5Y
T4 sequence (Q8N158 24-554): T1 sequence (Q8N158 24-554)
Source text: as §2, §3

[6] = tested on: cynomolgus monkey GPC2 expressing cell HEK293T/cynoGPC2; experiment: Flow cytometry binding of VHH-His proteins to HEK293T/cynoGPC2; conditions: FIG. 4A-4C
Source text: as §2, §3

B1: AS79236VH6-hIgG1Fc: AS79236VH6 VHH fused to human IgG1Fc fragment (protein)
chain: EVQLVESGGGLVQPGGSLRLSCAVSGYTYSSYCMAWFRQAPGKGLEGVASIDAGGRTTYVDSVKGRFTISKDNAKNSLYLQMNSLRAEDTAMYYCAVDVRTRCGGTWDGEAVYFPYWGQGTLVTVSS
modifications: left off: a dimerising Fc or GST
notes: AS79236VH6 VHH fused to human IgG1Fc fragment
cross-reactivity with other recombinant human and murine GPC family proteins [1]: no cross-reactivity
ka [2]: 530000 M⁻¹ s⁻¹
kd [2]: 0.00019 s⁻¹
binding to recombinant human GPC2 protein [3]: high affinity

B2: AS71529VH6-AS70950VH6: tandem humanized anti-GPC2 VHH, SEQ ID NO: 146; tested as VHH-HIS protein (protein)
VHH: EVQLVESGGGLVQPGGSLRLSCAVSEYRYSSRYCMGWFRQAPGKGREGVAAIDSNGSADYVDSVKGRFTISKDNSKNTLYLQMNSLRAEDTAMYYCAADHLAYDCYSGATSVFRYWGQGTLVTVSSGGGGSGGGGSGGGGSEVQLVESGGGLVQPGGSLRLSCAISEFTYKNTCVGWFRQAPGKGREGVAAIDSDGNTNYVDSVKGRFTISQDNSKNTVYLQMNSLRAEDTAMYYCAAGAYCGRLLLWIGNYAYWGQGTLVTVSS
modifications: His tag; AS71529VH6-AS70950VH6
notes: tested as VHH-HIS protein
binding to HEK293T/hGPC2 [4]: specifically bind
binding to SH-SY5Y [5]: specifically bind
binding to HEK293T/cynoGPC2 [6]: specifically bind

B3: AS70950VH6-hIgG1Fc: AS70950VH6 VHH fused to human IgG1Fc fragment (protein)
chain: EVQLVESGGGLVQPGGSLRLSCAISEFTYKNTCVGWFRQAPGKGREGVAAIDSDGNTNYVDSVKGRFTISQDNSKNTVYLQMNSLRAEDTAMYYCAAGAYCGRLLLWIGNYAYWGQGTLVTVSS
modifications: left off: a dimerising Fc or GST
notes: AS70950VH6 VHH fused to human IgG1Fc fragment
cross-reactivity with other recombinant human and murine GPC family proteins [1]: no cross-reactivity
ka [2]: 390000 M⁻¹ s⁻¹
kd [2]: 0.00011 s⁻¹
binding to recombinant human GPC2 protein [3]: high affinity

B5: AS71529VH6-hIgG1Fc: AS71529VH6 VHH fused to human IgG1Fc fragment (protein)
chain: EVQLVESGGGLVQPGGSLRLSCAVSEYRYSSRYCMGWFRQAPGKGREGVAAIDSNGSADYVDSVKGRFTISKDNSKNTLYLQMNSLRAEDTAMYYCAADHLAYDCYSGATSVFRYWGQGTLVTVSS
modifications: left off: a dimerising Fc or GST
notes: AS71529VH6 VHH fused to human IgG1Fc fragment
ka [2]: 850000 M⁻¹ s⁻¹
kd [2]: 0.0044 s⁻¹
binding to recombinant human GPC2 protein [3]: high affinity

B8: AS72669VH6: humanized anti-GPC2 VHH, SEQ ID NO: 130; tested as VHH-HIS protein (protein)
VHH: QVQLVESGGGVVQPGGSLRLSCAASRFTYSSYCMGWIRQAPGKGREGVAIFYTGGGRTYYADSVKGRFTISQDNSKNTLYLQMNSLRAEDTAVYYCVAGFYCSGGYWEGDFGYWGQGTLVTVSS
modifications: His tag; AS72669VH6
notes: tested as VHH-HIS protein
binding to HEK293T/hGPC2 [4]: specifically bind
binding to SH-SY5Y [5]: specifically bind
binding to HEK293T/cynoGPC2 [6]: specifically bind

Second part, led by results:

binding to HEK293T/hGPC2 [4]: specifically bind
binding to SH-SY5Y [5]: specifically bind
B4: AS70950VH6: humanized anti-GPC2 VHH, SEQ ID NO: 124; tested as VHH-HIS protein (protein)
VHH: B3 chain
modifications: His tag; AS70950VH6
notes: tested as VHH-HIS protein
binding to HEK293T/cynoGPC2 [6]: specifically bind

binding to HEK293T/hGPC2 [4]: specifically bind
binding to SH-SY5Y [5]: specifically bind
B6: AS71529VH6: humanized anti-GPC2 VHH, SEQ ID NO: 127; tested as VHH-HIS protein (protein)
VHH: B5 chain
modifications: His tag; AS71529VH6
notes: tested as VHH-HIS protein
binding to HEK293T/cynoGPC2 [6]: specifically bind

cross-reactivity with other recombinant human and murine GPC family proteins [1]: no cross-reactivity
ka [2]: 200000 M⁻¹ s⁻¹
kd [2]: 0.00017 s⁻¹
binding to recombinant human GPC2 protein [3]: high affinity
B7: AS78117VH4-hIgG1Fc: AS78117VH4 VHH fused to human IgG1Fc fragment (protein)
chain: EVQLVESGGGLVQPGGSLRLSCIVSRYTYATYSMAWFRQAPGKGLEGVSGLDSVGATGYAESVKGRFTISRDNSKNTLYLQMNSLRAEDTAVYYCVVDPASAKVTYGSWSTPSYAYWGQGTLVTVSS
modifications: left off: a dimerising Fc or GST
notes: AS78117VH4 VHH fused to human IgG1Fc fragment

From US12606635B2, “Glypican-2-binding moieties, chimeric antigen receptors and uses thereof” (Nanjing Legend Biotech Co., Ltd., priority 2020, dated 2026)
